In the DeepSol protein solubility set:

Assay: soluble on expression in E. coli; label from the status in PepcDB or PDB records

Sequence | soluble on expression in E. coli
MGSDKIHHHHHHAQRINHVQEAIANYDYEAALTLIAKEKPTIPLLLQKGKAQRGLGMNTEALSTYQEIIANDTANTRAYIEAAECCRSLAKYQQALKYYEQALDLNPENKYVRIQYIGLLLSLQKFQDALGESSLMTEKDSSAIALHLQAQSFEGMGELLPATGCYYNIQEKYPDDYLAAAKLAALNIAGSYFNEAIEATEKYRQTDTTNIAVNRQNALAYCLNKDYPTAIQRYEYLVSQGDSSFHTCYYLGISYYAEEKYYEAHDFLEAARKHDPENVNLLYYLGRACAKTSWKKLGVEYLEKALDLTIPKDSNMVRLYIGMTDCYKMAQMPKEQIESIRERYRKYDKQNHKLLYDMAFIYFYSLKDKKNTERCLEAFLKTRPKEDKEEEAKLNERGELVLGTKNYYNAAANWLKDIQSKQKIEDFFLGGNVPAQKPE | not soluble
MGSDKIHHHHHHAQVTPFTYFNVDWQFNAPISNNFANKASGWGMNFEGGYYVLPDLSIGAFINYHTNNEYISRQTLPISNSAALTTDQQHSVFQLPFGFATHYRFSDGACQPYIGLKLGANYTKMSSDFYIYEVKDNTWGFYVSPEVGVNIYPWTNSIGFHLAAFYSYSTNKGTVFNYDMDKLNNFGFRLGVAF | not soluble
MGSDKIHHHHHHASCSNDDDEMDKYQKIYIRTGVAPGAEMGAAVVVDCVSNSSTADRSDFEIQLCAVQPVTRDVTAALGVDTLKVDTYNSANKTKCKLLPQDNYTIETSEVVLKTGQTVADSSFQVVLKNIEKLTNPDGYVLPVTLKGVTGMDEQAVSTSMKTVYIRIYTSVLYTSYTKPGNWSAVDRSAWSVSCSNVYADDDAKYGAHLAIDGEINTTWFTWGVANAGECWWNTVLDRPVTLTGFSVTKQSAYGSGYNLRSAEIKVRKEGETEWVTYPRVLTFRNFKGADPQYAAIEPPIPNVKEFRINCLTPDNYTGFAEINLYVKQ | not soluble
MGSDKIHHHHHHCGGSGSSEPVAPTTTPDTGFSFAATAMITNLTQEVIVTGYADLAAKGSELVLATQKLINSTSQADLVAAQDAWKAARQPWEQGESHIFGPVDSLSIDPHLDSWPLNTTDLSTQLTTAAGFDAETIKSWNDDVQGFHTMEYLLFGDGVADNTKDISELTVKEREYLIALAQVFRDHAKTLDDAWQINHKPDDANAKPYAELLSQPGVDGNTVYSSELAVIEELINGMIGIVDEVGNGKISDPFGDSITSADTSKVESQYSWNSLTDFANNIQGVRNVYQGEFTGNTDKQGVKDFVSAADANLAVRVASEIDDAIIKIQAISGSNSMPFRQAIKDANGRVRIQTAIDALTKLKTSLESDVIPLLSKWKPA | not soluble
MGSDKIHHHHHHDDDIIGALLEGKMPQATPVPPPTTVAATVASIDPPALKPAVDPRWVHLHNVHTGEKLEAVYWENGDYVPDAVSALDKVLRDYRNDEVHPIDRGLYDLLDQIARKTQSKGPFQVISGYRSPATNRLLSKRSGEVAKKSLHMDGKAMDIFLEDVELKHVRAAALDLSVGGVGYYPTSNFVHVDVGPVRKWTGT | not soluble
MGSDKIHHHHHHDKNSAPGFSFTTDSILTLTFDKELDAAFVGVGTQNYNPVGMRRSGDTLFIANRAEGSDGVWVVRASTGELLYSLTGWTYNGKNEKFDNQVMDVAVSSDYIFVVNRSSRIDLFRRNDYSYVTTIGRTGWQSSSLLQCEAAEVAGDKLFIRDKQKIKVVQISDCTPENRFKVPVFAQNTDSTSSNNGFNLESVARHEGLIYVSDYETSRILVIDPATVAVKGEPVRFLRSYRMPNKPLSMGFFQNEMYVVCANNCIVRVDLRTGKELGSYSSFAGGVGLGTPGRLLFHNDTFYLAGRNANAPRLIQGKVMFVEISELD | not soluble
MGSDKIHHHHHHDLEEYRTTPKMVINSAFSPDTVVMASISRTWFHSESKPDVTIRNAKVELYIDGIFKEEMPWKEYSYWKSSRWLGEDRGGWVTDTLYISNTVPQPGQTVKIVASTPEYGTASAEDKIPSKTEIKGLRIIPRKEATGNGGTLVDGDGNISYIEENDVLIYQITFQDTPGKSNYYSLQIWGDDDHLGVLLDFSVDPVFTQQQGILDEVFGSSMVNWRGRVFSDELFDGKEYTLQVKEQLRSDTKYYTKRHIRLYSLSEPYYQYLLSLQNIKNEGIMGGLTNVGLAEPVRIYSNVEGGTGIAGGCQWFESLVDIKDLIK | not soluble
MGSDKIHHHHHHDLLHESYGQVVSEDYVPKTEEDVSYLVNAAYIPWRETLLQWNGVVRAQELCADQDVLPARDGIGWVDGYIYKRWHQHTWTTEDDGVLQGWERTYNGVNTCNRILSQIEEGVISVDGETKEKLIAELKVLRASYYYILIDLYGNVPIVTDFKDTSLPQQSTRKEVFDFIVKEITENMDLLSETPRGYYYGRFNKWAAHTLLAKMYLNAEVWSGTAQWQKCIDECDIVINYAEKSGEYALENNQKDVFVTHNENSKEIIFALPFDEIYVTGWNDFDFHMYTLAPENQDTYQLTARPWGGVCAVPQFINSFDEDDARLEDNYIQGQQYTYSGEILKRSIDGKPLIYTVDVPSIDQSDVDDGFRWGKFEYATGITNRLSNDWPLLRYADVLMMKAESLMRLGKSGAGALVTQVRERAFKNEPEKAQVTDAELMGGSVYDYGRRDSYKTEHDGGTDIKYGRFLDELGWEFCQEGRRRQDMIRFGIFTTKAWFSHDKSDETKNLYPIPNKVLLTNSNLKQNPGYSK | not soluble
MGSDKIHHHHHHEDVYREVTASGAHNLTLAVDNPRNLGGADDAALARDVAEVLRFDMTLAGPFSVMAPPAGTSPGGIRPGEFDLDSWRNAGVDLLVKSGYTITGDSVTMEFRLYNATQGRELAAKRYTGKRSDLRRITHTFSDDIMQTMTGERGPFTGKIAFVSTESGNKEIYLMDYDGHNVQRLTKNRSINLNPDFSPNGRELAYTSYRRGNPDLFRREIFTGTEAVVSSHRGINVTGTWSPDGKQLALAMSRDGNSEIYAISRDGRDPRRLTTHQAIDVSPAWSPDGKRIAFVSDRLGKPQVFIMNADGSDVRRLTTSGAYNVSPRWSPKGDRLVYCRQEGGFQIYSIATDGTGDTRLTSEGSNEHPRWSPDGRFLTFSSTRDGGEAIYVMRSDGSGQTRVYRSKGKASHPTWSPRW | not soluble
MGSDKIHHHHHHENLYFQGMIIRYATPDDIEDMVSIFIDAYNFPGPRESVKSSFEISLEVQPDGCLLAFLKDEPVGMGCIFFYNKQAWIGLMGVKKAYQRRGIGTEVFRRLLEIGRRKVDTIRLDASSQGYGLYKKFKFVDEYRTVRYELMERPIKRVEGVVEVNKIPNWVKEIDKKAFGDDRIRVLEAYMRRGARLLCAENEGFGLVYRGKIGPLVADSPRVAEKILLKAFQLGAREIIIPEVNKDALELIKIFKPSQVTSCMRMRLGSKIEEKVDIYYGILAYAKG | soluble
MGSDKIHHHHHHENLYFQGMRYLSKDILEEVITQRPSDSYKSNFGRVVLIGGNRQYGGAIIMSTEACINSGAGLTTVITDVKNHGPLHARCPEAMVVGFEETVLLTNVVEQADVILIGPGLGLDATAQQILKMVLAQHQKQQWLIIDGSAITLFSQGNFSLTYPEKVVFTPHQMEWQRLSHLPIEQQTLANNQRQQAKLGSTIVLKSHRTTIFHAGEPFQNTGGNPGMATGGTGDTLAGIIAGFLAQFKPTIETIAGAVYLHSLIGDDLAKTDYVVLPTKISQALPTYMKKYAQPHTAPDSELLEQKRSR | soluble
MGSDKIHHHHHHENLYFQGMTEKSQEPTAALDAEQVAAYLSQHPEFFVEHDELIPELRIPHQPGDAVSLVERQVRLLRERNIEMRHRLSQLMDVARENDRLFDKTRRLVLDLLDATSLEDVVSTVEDSLRHEFQVPYVSLILFSDSSVSVGRSVSSAEAHQAIGGLLSGGKTVCGVLRPHELAFLFGESDRDEIGSAAVVSLSFQGLHGVLAIGSPDPQHYKSSLGTLFLGYVAEVLARVLPRFSSPLRSVR | soluble
MGSDKIHHHHHHETLRAFQRKAYESTEKTNCVCFFIQEALEIAENLEHLATDPNYQKPPLFGVPVSIKESIHVKNLDSTAGYAQKINNPSDANSVSVDQLIRLGAVPFVHTNIPIALLSYGCSNGVYGTTLNPLDNSRVPGGSSGGEAALVSLGGSVLGIGTDVGGSIRTPASFCGLAGFKSSSDRSPQLGKTASIPGRQLLLSVEGPIAKNIDVCVEYLRLKWNDPLLYKKDVYMPPVKFQENLYNSEKPLKIGYYTFDGYQTASPAYQRAVRETVAVLKELGHELVPFEVPQPDHMYSIFCAGATADGGLYLMDSLANDIIPPEADIGFPVAKLPHFIQRLLRKYWHHRRERQIIQELPHDTEEMRQMHEKIEDYRHEFVLAMRAKKLDALVCPAFGCPPPHHGMPNKILGANSYPALYNLIDFAAGTVPVTVQKQEDEVELRKMKTEDSWDRRVVTESKNCIGLPVSVQIATPPYREEMCLRLLKQVEAKIGLYSRTH | not soluble
MGSDKIHHHHHHEVDLYKGGSLREPAYLYPFDQENKNVTAEITIKTNSTINLELLDVYFAPLKYNKHLLIMLTQDDCKPSIYPRTWASINGKPLSGQYYYHYEQLKQDDLPPDIYYLGKTLGCTDGTGKEVRFSFTATLAADDNYMAEESIINLGYSKDNYRFYGRNGILWEDVIDIVNYGNSIAFHNVNTKEIHNIDSIQKHYLIGQDSIQKRLSGRKCKTLSEPDGNIDYTTAAINLDDIKTITAERGEKVYPFHNLTNLENHTLNRVFHDSPDDFKQVIEQERSIPTVDRCAINIGVHSTDAFWTDFLLWLNDTYGKDGEDCIWMPSQEEYYEYNYYRMHGKIEKSADGSTLKLIINLPSQEYFYYPSVTINLKGLKKEDIKSIESNSAVTGLSYGNYQDGVMLNIDCRRFLVEHATHFVEQYEKDKTNQSNKADALYFVNMLKESSKKAELLNRIK | not soluble
MGSDKIHHHHHHGASEVMWKDFRNEKTIDTVYLGSSFSQVTFNPYIIDEKLGWKSFNMGTPAQPLDQSYVALQNAIKEKKIKRAVLAYGIPTMEDTQNDNARITFAHAMKYGCSWKQKVKMDWDFITDKENINTESSINYLFPWISNSIEWTKTAIENNIKLKKHNNDATENMKTTEWYASYIGKGYAPILTGGFDYKNAITDNTKANYNCIISETAYCKLEKICRLCKDNEVEFIIVNTPKAPYDISMYGADEYFAINSRIEEICTKYGFSYYDFNLIKPQIFQICPEYLNNYEHLSKAGSEAFCNAFSNFIRLHDSGECMTNYFYNEEEYLDSVKDIVQCIKE | not soluble
MGSDKIHHHHHHGILKERKLAKKRDEVQRYVLMAADVNLGQGNEFREIFAKSVKPLLINLDTGKVDSDANVLDFDERMAAINPETSSTPKKDIAKIKTRANDARVFKVFDDSGKLSSVVVPFYGKGLWSMIYGYVAVEPDFNTIKGLVVYEHGETPGIGDFVTDPAWLNQWKNKQLFDEKGKFAIRLVKGGVKEGDVHGVDAVSGATMTGRGVQRAMEFWFGVEGFQTFFNQLKTSAVQGEFGGEK | not soluble
MGSDKIHHHHHHGLDRWMSWKTAPYIYDELQDLPYRQVGVVLGTAKYYRTGVINQYYRYRIQGALNAYNSGKVNYLLLSGDNALQSYNEPMTMRRDLIKGGVDPADIVLDYAGFRTLDSIVRTRKVFDTNDFIIITQRFHCERALFIALHMGIQAQCYAVPSPKDMWSVRLREFGARFGALADLYIFKREPRFLGPLIPIPAQQHDVPDDAQSYPAVTPEQLLELQKEK | not soluble
MGSDKIHHHHHHGYQFTDVVKVPATPVKNQASTGTCWCFATTSFMESELLRMGKGTYDLSEMFIVRQKYMNQLQDNYVRQGRGNIGQGSLSHTFMNAFNQVGIVPEEVYSGINYDSDRHNHAEMVKYIKAIATTAVDMKKRSPEYYKLIDNLFDTYLGKLPEKFTYQGKEYTPKTFAASLGLNMDDYIELTSFTHHPYYQKFEVEVPDNWEHAQMYNLPLNEMMEVADYALNNGYTVCWDGDVSEKGFSFKNGVAINPEVKKVEDYSTTDRARFEKMDEKERLEEVYKFEKPFPEVNVTPQVRQEGFEAFVTTDDHLMHLTGIAKDQNGTKYYITKNSWGTERNTFGGYLNMSDSFVRAKTIYIMVHKDAIPKAIKSKLGI | not soluble
